Article PMC2223497 (2026)

Experiments:
Test in all cases: Scatchard binding assay
[1] = biological target: T1, G-CSF receptor (KU-1 cells) (Homo sapiens, UniProt Q99062)
T1 chain: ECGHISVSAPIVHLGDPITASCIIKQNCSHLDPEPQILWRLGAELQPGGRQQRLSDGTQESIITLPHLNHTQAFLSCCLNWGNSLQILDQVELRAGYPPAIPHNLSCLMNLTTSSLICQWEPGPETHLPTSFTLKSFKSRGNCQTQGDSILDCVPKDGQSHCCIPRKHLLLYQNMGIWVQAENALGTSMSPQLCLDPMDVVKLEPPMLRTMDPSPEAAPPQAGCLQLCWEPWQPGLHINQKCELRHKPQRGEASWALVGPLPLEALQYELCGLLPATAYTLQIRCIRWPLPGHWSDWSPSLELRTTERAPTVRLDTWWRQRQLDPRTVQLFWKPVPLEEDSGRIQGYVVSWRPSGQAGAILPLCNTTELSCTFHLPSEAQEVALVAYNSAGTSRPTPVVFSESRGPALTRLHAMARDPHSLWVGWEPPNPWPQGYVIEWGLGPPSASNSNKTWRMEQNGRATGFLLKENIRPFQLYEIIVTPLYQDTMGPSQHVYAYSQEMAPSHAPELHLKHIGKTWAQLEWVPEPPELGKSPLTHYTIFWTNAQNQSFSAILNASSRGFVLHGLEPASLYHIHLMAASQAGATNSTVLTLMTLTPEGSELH

[2] = biological target: T2, G-CSF receptor (KK cells) (Homo sapiens, UniProt Q99062)
T2 chain: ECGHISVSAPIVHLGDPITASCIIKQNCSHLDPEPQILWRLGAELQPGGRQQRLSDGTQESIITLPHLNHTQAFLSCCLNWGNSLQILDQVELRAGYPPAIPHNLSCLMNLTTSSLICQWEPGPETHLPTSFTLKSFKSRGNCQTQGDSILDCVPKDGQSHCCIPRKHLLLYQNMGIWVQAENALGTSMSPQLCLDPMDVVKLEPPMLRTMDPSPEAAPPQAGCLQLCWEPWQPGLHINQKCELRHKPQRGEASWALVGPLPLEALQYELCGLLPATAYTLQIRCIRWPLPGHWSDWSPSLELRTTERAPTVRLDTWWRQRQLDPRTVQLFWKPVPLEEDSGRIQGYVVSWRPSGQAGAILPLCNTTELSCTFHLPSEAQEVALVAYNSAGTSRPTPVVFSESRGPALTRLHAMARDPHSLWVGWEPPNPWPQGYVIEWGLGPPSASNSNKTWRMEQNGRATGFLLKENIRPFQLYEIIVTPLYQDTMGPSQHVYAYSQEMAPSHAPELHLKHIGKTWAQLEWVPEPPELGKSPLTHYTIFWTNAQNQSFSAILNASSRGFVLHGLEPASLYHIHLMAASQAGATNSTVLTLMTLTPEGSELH

[3] = biological target: T3, G-CSF receptor (NBT-2 cells) (Homo sapiens, UniProt Q99062)
T3 chain: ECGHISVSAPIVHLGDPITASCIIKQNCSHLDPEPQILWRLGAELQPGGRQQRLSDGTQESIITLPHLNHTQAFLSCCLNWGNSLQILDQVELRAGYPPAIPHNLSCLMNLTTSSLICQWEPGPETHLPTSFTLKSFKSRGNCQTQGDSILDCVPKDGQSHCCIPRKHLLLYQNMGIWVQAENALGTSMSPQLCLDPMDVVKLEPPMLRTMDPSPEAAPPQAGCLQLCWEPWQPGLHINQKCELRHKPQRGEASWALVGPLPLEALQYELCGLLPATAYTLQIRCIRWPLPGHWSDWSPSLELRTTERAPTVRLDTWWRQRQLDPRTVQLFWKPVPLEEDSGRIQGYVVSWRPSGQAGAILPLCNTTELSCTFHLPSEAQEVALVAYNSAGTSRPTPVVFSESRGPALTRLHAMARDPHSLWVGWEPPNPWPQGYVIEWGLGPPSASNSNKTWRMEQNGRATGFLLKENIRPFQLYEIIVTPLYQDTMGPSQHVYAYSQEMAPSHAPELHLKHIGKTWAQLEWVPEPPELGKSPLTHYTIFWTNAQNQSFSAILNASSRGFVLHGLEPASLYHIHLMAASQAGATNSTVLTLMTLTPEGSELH

- Kd [1]: 0.49 nM
- Kd [2]: 0.103 nM
- Kd [3]: 0.34 nM
B1: G-CSF (protein)
chain: TPLGPASSLPQSFLLKCLEQVRKIQGDGAALQEKLVSECATYKLCHPEELVLLGHSLGIPWAPLSSCPSQALQLAGCLSQLHSGLFLYQGLLQALEGISPELGPTLDTLQLDVADFATTIWQQMEELGMAPALQPTQGAMPAFASAFQRRAGGVLVASHLQSFLEVSYRVLRHLAQP
